Test results taken from the supplement of paper PMC12042874.
± gives the uncertainty stated by the source.

Assay: amyloid nucleation score (Sup35N fusion, yeast selection) (log enrichment); library NNK3; higher = more nucleation; inactive = no reads after selection
Method in brief: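 Yeast lacking psi expressed peptides of 20 random codons fused to Sup35N, received 100 μM copper sulfate for 24 hours, and were then grown for 7 days at 30°C on medium lacking adenine and uracil. Illumina sequencing of input and output plasmid inserts provided the reads. Nucleation scores are DiMSum log enrichments of output over input, centred on the mode of non-aggregating sequences. Any sequence with under 100 input reads was excluded.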

Substance	amyloid nucleation score
QWLAEGYT	inactive
SWTSEGDWHYFGYIEVVWHY	inactive
VQGLGGNWW	inactive
DCSFMPTLYLGPTTFFFWHL	2.25 ± 0.064
SNTYCVPYRKGEELVYCGSW	inactive
KMFSLWFQ	1.69 ± 0.12
SLGSPYRTRGCLNKSPPLAC	inactive
RLFSFAIFHENTMLGNCCTM	2.44 ± 0.063
HPVKLILILIWPAFERSRCG	inactive
LIFWRPIGDEHYLWPLPFYL	inactive
CYYTKVNVSS	0.021 ± 0.26
VWSHSI	inactive
FLRMHVRGFDTFRARQ	inactive
SSWMYGFCVSKSSWPRL	-0.272 ± 1.4
DHLQVHYCGRHVLGAKKFAR	inactive
HQNSCDMLFRLSSTYLWGRA	inactive
WGWRA	-0.215 ± 0.57
FFVWKHLLMRFRYALACTLM	inactive
TNTPIMKCELHTRDFVKVIS	inactive
YWYYGCGSVGFAIRPWMSGI	1.58 ± 0.11
YKGKWLFCRQMSCEHFFGFF	inactive
YRKMRAEEDKWMVWVYSRRC	inactive

Substance	amyloid nucleation score
HCCFVWERRNACGMVSSWMT	inactive
PGSFNLILVTYIGLLQKLLH	0.993 ± 0.16
YMMGKISSPGNLMTMFAVDG	inactive
RRWGFCTLVIVCRAGCYVLS	inactive
GYKFWCSVFLVWLILHVRQS	inactive
FVWNERWKIRLYLMSFGRGR	2.35 ± 0.065
FGRIGSYWTMVQ	inactive
DCYKRSVMLKAARSWVNRSL	inactive
QDPLVT	inactive
VLSGNFNTSDFLLMFLITSQ	inactive
GLCRLIDLKM	inactive
GWSQYGACRVGVWGYRAPYN	inactive
GSHVTKVLTFYSNVWVHFTG	inactive
LRCGSSSDELCMREWFRVDL	inactive
KSSWAIKSSNGTW	inactive
WQRWMA	inactive
QTLRGCSNCRTRVGC	inactive
LGSVVRRDEGIVGESY	0.078 ± 0.6
AGWGLLQSCRRFWEWCG	inactive
HMRIGNESWVIGCQ	0.132 ± 0.75
SYFVLVWRETDFKHCLKGNF	inactive
NDFSKGLCMWTFNWNDTYDQ	1.75 ± 0.077

Substance	amyloid nucleation score
SLSNVGLANFLFSRPSLRSY	inactive
LVYTVNLWNALIFHLD	0.527 ± 0.22
SEVFNQLGTARSNMARRACA	inactive
SWIVNKVF	inactive
FFNDSYIRYFSCM	0.02 ± 0.77
FLCIVSAYF	inactive
GSVNLSVKSW	inactive
QAIGSKRT	inactive
PVDKRTSTAVDRFARAMNCQ	inactive
AMIFAICCLNNQESVGVRRT	2.49 ± 0.071
LFHSAMNGSHFSTVHSNSVI	inactive
FNRLDTNTTSGPRTGTTLEM	inactive
DVYSYKFDR	inactive
INQRLYEPFGRWVWTRYIAR	inactive
LRGFKEVTTRLKVRLQLGM	-0.731 ± 1.3
GPMNLMRSVRYALSRSYLLL	inactive
MYSHRRGRKLRLLESFYNLS	inactive
YWSCRWGLVLVS	inactive
ALMGHE	inactive
PYGICNLKF	inactive
NYPLRFLGKLAAT	inactive
NVRVGILQR	inactive
